This note sets out measurements from publication PMC9513391, “Crystal structure of the α-ketoglutarate-dependent non-heme iron oxygenase CmnC in capreomycin biosynthesis and its engineering to catalyze hydroxylation of the substrate enantiomer” (Frontiers in Chemistry, 2022).

This data set deals with the molecule itself. In words: crystal structure; CmnC apo and soaked complexes (L-Arg, L-hArg, alpha-KG, L-Arg/alpha-KG), space group I222, two chains in the asymmetric unit; apo crystals from 200 mM ammonium acetate, 24% v/v PEG 400, 0.1 M sodium citrate pH 5.5, 20°C.

B1: CmnC (enzyme)
chain: MTAIREIRLSEPESAQAALLALECAQRYAEPDSADFLADAAVLAHDLPRAVRREVERARLDDRLHALVVRGNDVDQDALGPTPPHWRQARTAASRRYGFLLVLYASLLGDVVGWATQQDGRVVTDVLPIEGQEDSLVSSSSSVELGWHTEDAFSPYRADYVGLFSLRNPDSVATTVAGLDPDLVGPAVVDVLFGERFHIRPDNSHLPTHNSGGRLSDYFAGIVEAVENPRAVSILRGHRDAPQLCVDSDFTTAVDGDAEAAGALDTLIKHLGGALYEVVLGPGDVAFLDNRNVVHGRRPFRARFDGTDRWLKRINVTADLRKSRAARRDAQARVLGEA
notes: CmnC, alpha-ketoglutarate-dependent non-heme iron oxygenase of capreomycin biosynthesis; gene cmnC amplified from genomic DNA of the capreomycin producer (ATCC 23892) and subcloned into pET28a; also called CmnC^apo; wild-type CmnC
By stoichiometry N is commonly meant a count of units in the complex or per binding partner. Regarding B1, the “stoichiometry N” value turned out to be 2.
